Test results: patent US8846866
Positions count from the first letter of the chain named.

T1: synthetic 13-residue sulfatase consensus motif peptide LCSPSRGSLFTGR
T1 chain: LCSPSRGSLFTGR

B1: Strep FGE Cys272Ser mutant (protein)
chain: AVAAPSPAAAAEPGPAARPRSTRGQVRLPGGEFAMGDAFGEGYPADGETPVHTVRLRPFHIDETAVTNARFAAFVKATGHVTDAERFGSSAVFHLVVAAPDADVLGSAAGAPWWINVRGAHWRRPEGARSDITGRPNHPVVHVSWNDATAYARWAGKRLPTEAEWEYAARGGLAGRRYAWGDELTPGGRWRCNIWQGRFPHVNTAEDGHLSTAPVKSYRPNGHGLWNTAGNVWEWCSDWFSPTYYAESPTVDPHGPGTGAARVLRGGSYLSHDSYCNRYRVAARSSNTPDSSSGNLGFRCANDADLTSGSAAE
B2: Strep FGE Trp234Phe mutant (protein)
chain: B1 chain with W233F, S271C
B3: Strep FGE Cys277Ser mutant (protein)
chain: B1 chain with S271C, C276S
B4: Streptomyces coelicolor formylglycine generating enzyme (Strep FGE, SCO7548), recombinant wild type (protein)
chain: B1 chain with S271C
B5: Mycobacterium tuberculosis formylglycine generating enzyme (Mtb FGE, Rv0712), recombinant wild type (protein)
chain: LTELVDLPGGSFRMGSTRFYPEEAPIHTVTVRAFAVERHPVTNAQFAEFVSATGYVTVAEQPLDPGLYPGVDAADLCPGAMVFCPTAGPVDLRDWRQWWDWVPGACWRHPFGRDSDIADRAGHPVVQVAYPDAVAYARWAGRRLPTEAEWEYAARGGTTATYAWGDQEKPGGMLMANTWQGRFPYRNDGALGWVGTSPVGRFPANGFGLLDMIGNVWEWTTTEFYPHHRIDPPSTACCAPVKLATAADPTISQTLKGGSHLCAPEYCHRYRPAARSPQSQDTATTHIGFRCVADPVSG

Biological target: T1, synthetic 13-residue sulfatase …

Protein | conversion of cysteine to FGly in the peptide, by mass spectrometry (FGE activity assay)
B1 | serine mutants were unable to generate FGly in vitro
B2 | mutation of Trp234 to Phe did not abolish activity
B3 | serine mutants were unable to generate FGly in vitro
B4 | WT Strep FGE was able to oxidize the synthetic peptide
B5 | Recombinant Rv0712 was able to modify a synthetic peptide containing the sulfatase motif as determined by mass spectrometry
